These are literature values, as cited in PMC10083361.

The target of this data set is TRAF2 (Homo sapiens) (UniProt Q12933).
Chain of TRAF2 (Homo sapiens) (Q12933 2-501): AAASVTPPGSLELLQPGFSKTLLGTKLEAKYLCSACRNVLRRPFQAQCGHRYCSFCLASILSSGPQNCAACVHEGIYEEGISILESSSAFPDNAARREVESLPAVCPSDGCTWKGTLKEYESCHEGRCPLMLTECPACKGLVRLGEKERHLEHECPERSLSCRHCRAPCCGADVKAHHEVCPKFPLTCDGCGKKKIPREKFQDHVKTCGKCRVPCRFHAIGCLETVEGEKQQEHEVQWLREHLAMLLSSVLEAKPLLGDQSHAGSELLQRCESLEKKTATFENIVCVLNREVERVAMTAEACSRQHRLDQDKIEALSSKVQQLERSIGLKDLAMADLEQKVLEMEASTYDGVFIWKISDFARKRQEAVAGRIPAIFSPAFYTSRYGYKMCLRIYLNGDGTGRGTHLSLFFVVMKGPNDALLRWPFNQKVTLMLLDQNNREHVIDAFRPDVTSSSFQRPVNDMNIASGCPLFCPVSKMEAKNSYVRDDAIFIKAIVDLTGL

Chain of 4-1BB (Q07011 24-255): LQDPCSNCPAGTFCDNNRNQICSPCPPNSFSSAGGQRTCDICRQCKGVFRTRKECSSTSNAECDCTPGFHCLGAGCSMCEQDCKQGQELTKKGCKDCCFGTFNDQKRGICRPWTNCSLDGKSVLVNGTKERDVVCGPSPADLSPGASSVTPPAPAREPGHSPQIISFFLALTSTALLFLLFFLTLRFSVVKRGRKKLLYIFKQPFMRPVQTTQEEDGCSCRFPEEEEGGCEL

In general, Kd refers to the constant that tells how readily two partners part at equilibrium. With 4-1BB (from UniProt Q07011), the Kd was 1000 µM.
